Patent US7449316B2, “UDP-galactose: β-D-galactose-R 4-α-D-galactosyltransferase, α4Gal-T1” (Glycozym APS, priority 2000, dated 2008)

T1: α4Gal-T1 (Homo sapiens, UniProt Q9NPC4)
T1 construct: The full coding constructs were assayed with 1% Triton X-100 homogenates of cells; made in house; host or cells: insect cells (High Five), baculovirus vector pVL1393
T1 sequence (Q9NPC4 1-353): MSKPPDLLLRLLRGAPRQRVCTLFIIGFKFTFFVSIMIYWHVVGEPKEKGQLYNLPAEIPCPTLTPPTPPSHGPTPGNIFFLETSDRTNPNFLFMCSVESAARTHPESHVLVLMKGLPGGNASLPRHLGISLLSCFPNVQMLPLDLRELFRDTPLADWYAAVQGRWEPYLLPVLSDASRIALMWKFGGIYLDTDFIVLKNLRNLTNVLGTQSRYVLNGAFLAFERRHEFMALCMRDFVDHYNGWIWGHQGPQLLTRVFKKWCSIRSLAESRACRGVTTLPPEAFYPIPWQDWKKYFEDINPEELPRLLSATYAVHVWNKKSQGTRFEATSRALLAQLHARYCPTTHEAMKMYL


What was measured:
[1] = target: T1, α4Gal-T1; assay: Saccharide acceptor substrates tested with α4Gal-T1; assay type: biochemical; conditions: saccharide acceptors, α4Gal-T1 expressed in insect cells
Procedure: (§1) Full coding constructs were prepared by genomic PCR using primer pair HCRS131 (5′-[…]) (SEQ ID NO:7) and HCRS125 (5′-[…]) (SEQ ID NO:8) and genomic DNA from phenotyped individuals with phenotypes P1+ (#165) and p (#4) (see Table II for sequence). Three different full coding constructs were selected for expression: #67 (A109, T548, G903, G987), #45 (G109, T548, G903, A987), and p#5 (A109, A548, G903, G987). The products were cloned into BamHI and EcoRI sites of pBluescript KS+, and subsequently into the insect cell expression vector pVL1393 (Pharmingen), and sequenced in full. A truncated, secreted construct (amino acid residues 46-353) was prepared using primer pair HCRS124 (5′-[…]) (SEQ ID NO:9) and HCRS125 from a P1+ phenotype individual (#165), and the sequence confirmed as described above. The products were cloned into the expression vector pAcGP67A (Pharmingen). The variants of plasmids pVL-α4Gal-T1-full and pAcGP67-α4Gal-T1-sol were co-transfected with Baculo-Gold™ DNA (Pharmingen), and virus amplified as described previously (Bennett et al., 1996). Standard assays were performed in 50 μl reaction mixtures containing 25 mM Cacodylate (pH 6.5), 10 mM MnCl2, 0.25% Triton X-100, 100 μM UDP-[^14C]Gal (10,000 cpm/nmol) (Amersham), and the indicated concentrations of acceptor substrates (Sigma and Dextra Laboratories Ltd) (see Table I for structures). The full coding constructs were assayed with 1% Triton X-100 homogenates of cells twice washed in phosphate buffered saline or resuspended microsomal fractions.

[2] = P1 assay: α4Gal-T activity with paragloboside (PG) acceptor; assay type: biochemical; conditions: full coding constructs in insect cells, 20 μg PG, UDP-Gal donor
Procedure: (§2) FIG. 4 illustrates expression of full coding Expression of full coding α4Gal-T1 variants in High Five cells. Assays were performed with microsomal fractions, and controls included constructs encoding polypeptide GalNAc-T3 and -T4 (Bennett et al., 1998), as well as a β3GlcNAc-T (Amado et al., 1999). Autoradiography of high performance thin-layer chromatography of reaction products (4 hr) purified by SepPack C-18 columns. Panel A: P^k assay using 25 μg CDH as substrate. Plate was run in chloroform-methanol-water (60/35/8 v/v/v). […] Panel B: P1 assay using 20 μg PG as substrate. Plate was run in chloroform-methanol-water (60/40/10 v/v/v). No specific product was formed with UDP-Gal donor substrate, whereas the β3GlcNAc-T transferred GlcNAc into PG with UDP-GlcNAc.
Full coding constructs were prepared by genomic PCR using primer pair HCRS131 (5′-[…]) (SEQ ID NO:7) and HCRS125 (5′-[…]) (SEQ ID NO:8) and genomic DNA from phenotyped individuals with phenotypes P1+ (#165) and p (#4) (see Table II for sequence). Three different full coding constructs were selected for expression: #67 (A109, T548, G903, G987), #45 (G109, T548, G903, A987), and p#5 (A109, A548, G903, G987). The products were cloned into BamHI and EcoRI sites of pBluescript KS+, and subsequently into the insect cell expression vector pVL1393 (Pharmingen), and sequenced in full. […]

[3] = system: Namalwa cells; assay: Cell surface P^k/CD77 antigen expression after transient transfection, FACS analysis; assay type: cell-based, human; conditions: transient transfection of Namalwa cells, 48 hours, 1A4 monoclonal antibody
Procedure: FIG. 7 illustrates cell surface expression of P^k/CD77 antigen in Namalwa cells after transient transfection of α4Gal-T1. Constructs p#5, #45, and #67, as well as empty pDR2 vector were electroporated in Namalwa cells and expression of P^k/CD77 antigen was tested after 48 hours. Cells were labeled with 1A4 monoclonal antibody and GAM-FITC (grey histograms) or with GAM-FITC alone (empty histograms) and analysed with a FACSCalibur flow cytometer.
The three full coding constructs #67, #45, and p#5, were cloned into pDR2 (Clontech, USA). Insert was excised from pBKs with BamHI/XhoI and inserted into the BamHI/SalI sites of pDR2. Transient transfection of 5×10^6 Namalwa cells with 20 μg cDNA was done by double-pulse electroporation using an Easy-cell ject+ (Eurogentec, France). Expression of CD77/P^k antigen was evaluated by FACS analysis on a FACSCalibur (Beckton-Dickinson, USA) using 1A4 monoclonal antibody (Wiels, 1997).

[4] = P^k assay: galactosyltransferase activity with CDH, α4Gal-T1 constructs expressed in insect cells; assay type: biochemical; conditions: full coding constructs in insect (High Five) cells, microsomal fractions, 25 μg CDH, UDP-[14C]Gal, 4 hr, compared to uninfected cells or control construct
Procedure: as §2, §1

Molecule	acceptor activity over background [1]	galactosyltransferase (α4Gal-T) activity with CDH [4]	further results
N[C@H]1C(O)O[C@H](CO)[C@@H](O[C@@H]2O[C@H](CO)[C@H](O)[C@H](O)[C@H]2O)[C@@H]1O (stereo partly drawn) [lactosamine]	no significant activity over background values		
OC[C@H]1O[C@@H](O[C@H]2[C@H](O)[C@@H](O)[C@H](OCc3ccccc3)O[C@@H]2CO)[C@H](O)[C@@H](O)[C@H]1O [benzyl β-lacto-side]	no significant activity over background values		
OC[C@H]1O[C@@H](O[C@H]2[C@H](O)[C@@H](O)C(O)O[C@@H]2CO)[C@H](O)[C@@H](O)[C@H]1O (stereo partly drawn) [lactose]	no significant activity over background values		
α4Gal-T1^37V: full coding human α4Gal-T1 variant, construct #45 (G109, T548, G903, A987), Val at residue 37 (protein, UniProt Q9NPC4 1-353, looked up, full-length) MSKPPDLLLRLLRGAPRQRVCTLFIIGFKFTFFVSIMIYWHVVGEPKEKGQLYNLPAEIPCPTLTPPTPPSHGPTPGNIFFLETSDRTNPNFLFMCSVESAARTHPESHVLVLMKGLPGGNASLPRHLGISLLSCFPNVQMLPLDLRELFRDTPLADWYAAVQGRWEPYLLPVLSDASRIALMWKFGGIYLDTDFIVLKNLRNLTNVLGTQSRYVLNGAFLAFERRHEFMALCMRDFVDHYNGWIWGHQGPQLLTRVFKKWCSIRSLAESRACRGVTTLPPEAFYPIPWQDWKKYFEDINPEELPRLLSATYAVHVWNKKSQGTRFEATSRALLAQLHARYCPTTHEAMKMYL		marked increase in galactosyltransferase activity	α4Gal-T activity with neolacto-series (paragloboside) glycolipid acceptor (P1 synthase activity) [2]: neither α4Gal-T1^37M or α4Gal-T1^37V constructs conferred α4Gal-T activity; P^k/CD77 expression [3]: clearly resulted in P^k/CD77 expression; galactosyltransferase (α4Gal-T) activity with CDH ([4]; listed as #45): resulted in α4Gal-T activity toward CDH
α4Gal-T1^183K: full coding α4Gal-T1 from p individuals, construct p#5 (A109, A548, G903, G987), Met183 to Lys (protein, UniProt Q9NPC4 1-353, looked up, variant M183K, full-length, full coding α4Gal-T1 from p individuals, construct p#5 (A109, A548, G903, G987), Met183 to Lys) MSKPPDLLLRLLRGAPRQRVCTLFIIGFKFTFFVSIMIYWHVVGEPKEKGQLYNLPAEIPCPTLTPPTPPSHGPTPGNIFFLETSDRTNPNFLFMCSVESAARTHPESHVLVLMKGLPGGNASLPRHLGISLLSCFPNVQMLPLDLRELFRDTPLADWYAAVQGRWEPYLLPVLSDASRIALKWKFGGIYLDTDFIVLKNLRNLTNVLGTQSRYVLNGAFLAFERRHEFMALCMRDFVDHYNGWIWGHQGPQLLTRVFKKWCSIRSLAESRACRGVTTLPPEAFYPIPWQDWKKYFEDINPEELPRLLSATYAVHVWNKKSQGTRFEATSRALLAQLHARYCPTTHEAMKMYL		no activity	galactosyltransferase (α4Gal-T) activity with CDH ([4]; listed as #5): no activity above background
